In patent US9458483B2, “Compositions comprising a polypeptide having cellulolytic enhancing activity and a bicyclic compound and uses thereof” (Novozymes, Inc., priority 2010, dated 2016):
Read-outs that look alike come from different tables or passages of the source.

Assays:
[1] = test system: Trichoderma reesei cellulase composition; assay type: biochemical
Procedure: (§1) Control saccharification reactions containing equivalent methanol-containing buffer concentrations, 2% and 10% (v/v) methanol, or no methanol, were performed on each 96-well plate. […] All experiments were performed in triplicate, unless otherwise indicated.
(§2) The filtrates were analyzed for sugar content as described below. […] Data were processed using MICROSOFT EXCEL® software (Microsoft, Richland, Wash., USA), or […]® software (Synergy Software, Reading, Pa., USA).
Similarly, the effect of each bicyclic compound tested in the absence of GH61 polypeptide was quantified by calculating the ratio of percent conversion for the T. reesei cellulase composition without supplemented GH61 polypeptide having cellulolytic enhancing activity in the presence of each compound to the percent conversion in the absence of each compound:
In general, the bicyclic compound effect(no GH61) was approximately 1, though the methanol solvent was inhibitory to cellulolysis (Example 3).

[2] = test system: Trichoderma reesei cellulase composition; assay type: biochemical; details: for GH61 effect: 2% methanol
Procedure: as §1, §2
[formula] where 1.111 represents the mass conversion factor accounting for the hydration of glucose produced from the cellulose polymer. The fractional hydrolysis is defined herein as the conversion expressed as a fraction rather than as a percent (i.e., % conversion/100).
[formula] […] Thus for saccharification reactions where only the presence of a bicyclic compound differs, a difference in GH61 effect can be attributed to the effect of the bicyclic compound on the cellulolytic enhancing effect of the GH61 polypeptide.

For `CO` [methanol], which “effect on saccharification by the T. reesei cellulase composition” value ([1]; 2% and 10% (v/v) methanol) is on record?
Its value is “inhibited saccharification”.

And the “bicyclic compound effect(no GH61)” value ([1]; 2% methanol, 3 days)?
The value was 0.93.

What about the “bicyclic compound effect(no GH61)” value ([1]; 2% methanol, 7 days) of the same molecule?
Its value is 0.90.

What about the “bicyclic compound effect(no GH61)” value ([1]; 10% methanol, 3 days) of the same molecule?
The value was 0.43.

And the “bicyclic compound effect(no GH61)” value ([1]; 10% methanol, 7 days)?
Its value is 0.35.

B1: T. aurantiacus GH61A polypeptide: GH61A polypeptide having cellulolytic enhancing activity (SEQ ID NO: 14), recombinantly prepared in Aspergillus oryzae JaL250 (protein, listed as Thermoascus aurantiacus)
chain: MSFSKIIATAGVLASASLVAGHGFVQNIVIDGKYYGGYLVNQYPYMSNPPEVIAWSTTATDLGFVDGTGYQTPDIICHRGAKPGALTAPVSPGGTVELQWTPWPDSHHGPVINYLAPCNGDCSTVDKTQLEFFKIAESGLINDDNPPGIWASDNLIAANNSWTVTIPTTIAPGNYVLRHEIIALHSAQNQDGAQNYPQCINLQVTGGGSDNPAGTLGTALYHDTDPGILINIYQKLSSYIIPGPPLYTG
What does the source list for B1?
GH61 effect ([2]; 3 days of hydrolysis): 0.98±0.078; GH61 effect ([2]; 7 days of hydrolysis): 1.01±0.06; GH61 effect (Equation 4) ([2]; 10% methanol, 3 days): 1.00±0.068; percent conversion in the presence of 50% (w/w) T. aurantiacus GH61A polypeptide ([2]; 10% methanol, 3 days of hydrolysis): 11.8±0.379%; percent conversion in the presence of 50% (w/w) T. aurantiacus GH61A polypeptide ([2]; 10% methanol, 7 days of hydrolysis): 15.1±0.388%; percent conversion in the presence of 50% (w/w) T. aurantiacus GH61A polypeptide ([2]; 3 days of hydrolysis, no bicyclic compound, no methanol, averaged over all plates): 26.2±1.17%; GH61 effect (Equation 4) ([2]; 3 days of saccharification, no bicyclic compound, no methanol): 0.98±0.064; percent conversion in the presence of 50% (w/w) T. aurantiacus GH61A polypeptide ([2]; 7 days of hydrolysis, no bicyclic compound, no methanol, averaged over all plates): 41.4±1.67%; GH61 effect (Equation 4) ([2]; 7 days of saccharification, no bicyclic compound, no methanol): 0.99±0.051; GH61 effect on AVICEL ([2]; in the absence of bicyclic compounds): 1
